Assay results reported in patent US20080020978A1 (Amgen, published 2008).
Positions count from the first letter of the chain named. Bridge positions count the residues as written; N and C are the ends. Square brackets hold non-standard residues; d marks the D form. Oic = O=C(O)[C@@H]1C[C@@H]2CCCC[C@@H]2N1; 1Nal = N[C@@H](Cc1cccc2ccccc12)C(=O)O; Igl = N[C@H](C(=O)O)C1Cc2ccccc2C1; hArg = N=C(N)NCCCC[C@H](N)C(=O)O; Tic = O=C(O)[C@@H]1Cc2ccccc2CN1; Cit = NC(=O)NCCC[C@H](N)C(=O)O; Nle = CCCC[C@H](N)C(=O)O

Biological target: CGRP1 receptor (CRLR/RAMP1 complex) of human neuroblastoma SK-N-MC cells (human, UniProt Q16602 23-461; O60894 27-148)
Experiment: cell-based or functional assay

Sequence of CGRP1 receptor (CRLR/RAMP1 complex) of human neuroblastoma SK-N-MC cells (Q16602 23-461, chain 1 of 2): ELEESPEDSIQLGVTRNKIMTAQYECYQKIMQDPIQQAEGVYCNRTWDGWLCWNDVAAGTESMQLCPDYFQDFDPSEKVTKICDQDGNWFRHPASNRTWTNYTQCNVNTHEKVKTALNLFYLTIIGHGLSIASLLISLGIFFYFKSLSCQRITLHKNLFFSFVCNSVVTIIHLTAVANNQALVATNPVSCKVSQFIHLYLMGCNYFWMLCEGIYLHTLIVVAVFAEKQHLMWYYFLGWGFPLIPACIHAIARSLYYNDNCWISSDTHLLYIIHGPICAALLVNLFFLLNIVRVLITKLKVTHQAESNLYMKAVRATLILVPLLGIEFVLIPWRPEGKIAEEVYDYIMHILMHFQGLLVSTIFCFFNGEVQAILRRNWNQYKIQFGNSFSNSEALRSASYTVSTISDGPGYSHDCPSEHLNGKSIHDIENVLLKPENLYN
Sequence of CGRP1 receptor (CRLR/RAMP1 complex) of human neuroblastoma SK-N-MC cells (O60894 27-148, chain 2 of 2): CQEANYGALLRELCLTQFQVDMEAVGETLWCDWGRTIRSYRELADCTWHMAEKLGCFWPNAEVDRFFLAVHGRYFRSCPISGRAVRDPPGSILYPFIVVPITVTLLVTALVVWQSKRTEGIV

B1: SEQ ID NO 945 (peptide)
peptide: Ac-KWVTH[Cit]LAGLLS[Cit]SGGVVRKNFVPTDVGPKAF-NH2
SMILES: CC(=O)N[C@@H](CCCCN)C(=O)N[C@@H](Cc1c[nH]c2ccccc12)C(=O)N[C@H](C(=O)N[C@H](C(=O)N[C@@H](Cc1c[nH]cn1)C(=O)N[C@@H](CCCNC(N)=O)C(=O)N[C@@H](CC(C)C)C(=O)N[C@@H](C)C(=O)NCC(=O)N[C@@H](CC(C)C)C(=O)N[C@@H](CC(C)C)C(=O)N[C@@H](CO)C(=O)N[C@@H](CCCNC(N)=O)C(=O)N[C@@H](CO)C(=O)NCC(=O)NCC(=O)N[C@H](C(=O)N[C@H](C(=O)N[C@@H](CCCNC(=N)N)C(=O)N[C@@H](CCCCN)C(=O)N[C@@H](CC(N)=O)C(=O)N[C@@H](Cc1ccccc1)C(=O)N[C@H](C(=O)N1CCC[C@H]1C(=O)N[C@H](C(=O)N[C@@H](CC(=O)O)C(=O)N[C@H](C(=O)NCC(=O)N1CCC[C@H]1C(=O)N[C@@H](CCCCN)C(=O)N[C@@H](C)C(=O)N[C@@H](Cc1ccccc1)C(N)=O)C(C)C)[C@@H](C)O)C(C)C)C(C)C)C(C)C)[C@@H](C)O)C(C)C
- Peptide IC50: 13 nM

B2: SEQ ID NO 957 (peptide)
peptide: Ac-WVTH[Cit]LAGLLS[Cit]SGGVVRKNFVPTDVG[Tic]FAF-NH2
- Peptide IC50: 4.32 nM

B3: SEQ ID NO 956 (peptide)
peptide: Ac-WVTH[Cit]LAGLLS[Cit]SGGVVRKNFVPTDVG[Tic]FAF-NH2
- Peptide IC50: 3.02 nM

B4: SEQ ID NO 857 (peptide)
peptide: Ac-WVTHQLAGLLSQSGGVVRKNFVPTDVGPFAF-NH2
- Peptide IC50: 0.53 nM

B5: PEG-peptide of SEQ ID NO 928 (peptide)
peptide: WVTHXLAGLLSXSGGVVXKNXVPTDVGPXAF
modifications: Ac-WVTH[Cit]LAGLLS[Cit]SGGVV[hArg]KN[pI-Phe]VPTDVGP[pI-Phe]AF-NH2; PEG-conjugated (Table 2C: in most cases at Lys^25)
- PEG-peptide IC50: 11.4 nM

B6: SEQ ID NO 938 (peptide)
peptide: B5 peptide with X21F, X29F
modifications: Ac-WVTH[Cit]LAGLLS[Cit]SGGVV[3G-Dpr]KNFVPTDVGPFAF-NH2
- Peptide IC50: 1.39 nM

B7: SEQ ID NO 934 (peptide)
peptide: B5 peptide with X21F, P28X
modifications: Ac-WVTH[Cit]LAGLLS[Cit]SGGVV[hArg]KNFVPTDVG[Oic][2-Nal]AF-NH2
- Peptide IC50: 1.65 nM

B8: SEQ ID NO 949 (peptide)
peptide: B5 peptide with X21F, P23X, F31X
modifications: Ac-WVTH[Cit]LAGLLS[Cit]SGGVV[hArg]KNFV[Oic]TDVGP[1-Nal]A[2-Nal]-NH2
- Peptide IC50: 2.73 nM

B9: SEQ ID NO 947 (peptide)
peptide: B5 peptide with X21F
modifications: Ac-WVTH[Cit]LAGLLS[Cit]SGGVV[hArg]KNFVPTDVGP[Tic]AF-NH2
- Peptide IC50: 89.9 nM

B10: SEQ ID NO 935 (peptide)
peptide: B5 peptide with X21F, X29F
modifications: Ac-WVTH[Cit]LAGLLS[hArg]SGGVV[Guf]KNFVPTDVGPFAF-NH2
- Peptide IC50: 2.37 nM

B11: SEQ ID NO 936 (peptide)
peptide: B5 peptide with X21F, X29F
modifications: Ac-WVTH[Cit]LAGLLS[hArg]SGGVV[BhArg]KNFVPTDVGPFAF-NH2
- Peptide IC50: 2.41 nM

B12: SEQ ID NO 954 (peptide)
peptide: B5 peptide with P28X, X29F, F31X
modifications: Ac-WVTH[Cit]LAGLLS[Cit]SGGVV[hArg]KN[2-Nal]VPTDVG[Oic]FA[2-Nal]-NH2
- Peptide IC50: 3.45 nM

B13: SEQ ID NO 960 (peptide)
peptide: B5 peptide with X21F
modifications: Ac-WVTH[Cit]LAGLLS[Cit]SGGVV[hArg]KNFVPTDVGP[1-Nal]AF-NH2
- Peptide IC50: 2.24 nM

B14: PEG-peptide of SEQ ID NO 929 (peptide)
peptide: B5 peptide with X21F
modifications: Ac-WVTH[Cit]LAGLLS[Cit]SGGVV[hArg]KNFVPTDVGP[Bip]AF-NH2; PEG-conjugated (Table 2C: in most cases at Lys^25)
- PEG-peptide IC50: 5.58 nM

B15: SEQ ID NO 962 (peptide)
peptide: B5 peptide with X18R, X21F
modifications: Ac-WVTH[Cit]LAGLLS[Cit]SGGVVRKNFVPTDVGP[Tic]AF-NH2
- Peptide IC50: 10.1 nM

B16: SEQ ID NO 933 (peptide)
peptide: B5 peptide with X21F, P28X
modifications: Ac-WVTH[Cit]LAGLLS[Cit]SGGVV[hArg]KNFVPTDVG[Oic][1-Nal]AF-NH2
- Peptide IC50: 0.88 nM

B17: SEQ ID NO 952 (peptide)
peptide: B5 peptide with P23X
modifications: Ac-WVTH[Cit]LAGLLS[Cit]SGGVV[hArg]KN[pI-Phe]V[Oic]TDVGP[pI-Phe]AF-NH2
- Peptide IC50: 2.34 nM

B18: SEQ ID NO 937 (peptide)
peptide: B5 peptide with X21F, X29F
modifications: Ac-WVTH[Cit]LAGLLS[Cit]SGGVV[Cit]KNFVPTDVGPFAF-NH2
- Peptide IC50: 2.87 nM

B19: SEQ ID NO 950 (peptide)
peptide: B5 peptide with X21F, P23X
modifications: Ac-WVTH[Cit]LAGLLS[Cit]SGGVV[hArg]KNFV[Oic]TDVGP[Bip]AF-NH2
- Peptide IC50: 3.85 nM

B20: SEQ ID NO 929 (peptide)
peptide: B5 peptide with X21F
modifications: Ac-WVTH[Cit]LAGLLS[Cit]SGGVV[hArg]KNFVPTDVGP[Bip]AF-NH2
- Peptide IC50: 1.76 nM

B21: PEG-peptide of SEQ ID NO 941 (peptide)
peptide: B5 peptide with X21F, X29F
modifications: Ac-WVTH[Cit]LAGLLS[Cit]SGGVV[hArg](30 KPEGald)NFVPTDVGPFAF-NH2
- PEG-peptide IC50: 7.76 nM

B22: PEG-peptide of SEQ ID NO 930 (peptide)
peptide: Ac-WVTH[Cit]LAGLLS[Cit]SGGVV[hArg]KNFVPTDVGP[Igl]AF-NH2
modifications: also: PEG-conjugated, in most cases at Lys25
- PEG-peptide IC50: 126 nM

B23: PEG-peptide of SEQ ID NO 857 (peptide)
peptide: Ac-WVTHQLAGLLSQSGGVVRKNFVPTDVGPFAF-NH2
modifications: also: PEG-conjugated, in most cases at Lys25
- PEG-peptide IC50: 6.21 nM

B24: SEQ ID NO 944 (peptide)
peptide: Ac-WVTH[Cit]LAGELS[hArg]KGGVV[hArg]KNFVPTDVG[Oic][1Nal]AF-NH2
modifications: lactam 9-13
SMILES: CC(=O)N[C@@H](Cc1c[nH]c2ccccc12)C(=O)N[C@H](C(=O)N[C@H](C(=O)N[C@@H](Cc1c[nH]cn1)C(=O)N[C@@H](CCCNC(N)=O)C(=O)N[C@@H](CC(C)C)C(=O)N[C@@H](C)C(=O)NCC(=O)N[C@H]1CCC(=O)NCCCC[C@@H](C(=O)NCC(=O)NCC(=O)N[C@H](C(=O)N[C@H](C(=O)N[C@@H](CCCCNC(=N)N)C(=O)N[C@@H](CCCCN)C(=O)N[C@@H](CC(N)=O)C(=O)N[C@@H](Cc2ccccc2)C(=O)N[C@H](C(=O)N2CCC[C@H]2C(=O)N[C@H](C(=O)N[C@@H](CC(=O)O)C(=O)N[C@H](C(=O)NCC(=O)N2[C@H](C(=O)N[C@@H](Cc3cccc4ccccc34)C(=O)N[C@@H](C)C(=O)N[C@@H](Cc3ccccc3)C(N)=O)C[C@@H]3CCCC[C@@H]32)C(C)C)[C@@H](C)O)C(C)C)C(C)C)C(C)C)NC(=O)[C@H](CCCCNC(=N)N)NC(=O)[C@H](CO)NC(=O)[C@H](CC(C)C)NC1=O)[C@@H](C)O)C(C)C
- Peptide IC50: 0.85 nM

B25: SEQ ID NO 858 (peptide)
peptide: Ac-WVTHRLAGLLPRSGGVVRKNFVPTDVGPFAF-NH2
- Peptide IC50: 1.3 nM

B26: SEQ ID NO 930 (peptide)
peptide: Ac-WVTH[Cit]LAGLLS[Cit]SGGVV[hArg]KNFVPTDVGP[Igl]AF-NH2
- Peptide IC50: 4.58 nM

B27: PEG-peptide of SEQ ID NO 856 (peptide)
peptide: Ac-WVTHRLAGLLSQSGGVVRKNFVPTDVGPFAF-NH2
modifications: also: PEG-conjugated, in most cases at Lys25
- PEG-peptide IC50: 0.46 nM

B28: SEQ ID NO 942 (peptide)
peptide: Ac-WVTH[hArg]LEGLLK[Cit]SGGVV[hArg]KNFVPTDVG[Oic]FAF-NH2
modifications: lactam (positions not given here); not fully specified; printed as Ac-WVTH[hArg]LEGLLK[Cit]SGGVV[hArg]KNFVPTDVG[Oic]FAF-NH2
- Peptide IC50: 0.83 nM

B29: SEQ ID NO 943 (peptide)
peptide: Ac-WVTH[Cit]LAGELS[Cit]KGGVV[hArg]KNFVPTDVG[Oic]FAF-NH2
- Peptide IC50: 1.45 nM

B30: SEQ ID NO 859 (peptide)
peptide: Ac-WVTHRLAGLASRPGGVVRKNFVPTDVGPFAF-NH2
- Peptide IC50: 1.41 nM

B31: PEG-peptide of SEQ ID NO 858 (peptide)
peptide: Ac-WVTHRLAGLLPRSGGVVRKNFVPTDVGPFAF-NH2
modifications: also: PEG-conjugated, in most cases at Lys25
- PEG-peptide IC50: 5 nM

B32: SEQ ID NO 940 (peptide)
peptide: Ac-WVTH[Cit]LAGLLS[Cit]SGGV[Nle]RKNFVPTDVGPFAF-NH2
SMILES: CCCC[C@H](NC(=O)[C@@H](NC(=O)CNC(=O)CNC(=O)[C@H](CO)NC(=O)[C@H](CCCNC(N)=O)NC(=O)[C@H](CO)NC(=O)[C@H](CC(C)C)NC(=O)[C@H](CC(C)C)NC(=O)CNC(=O)[C@H](C)NC(=O)[C@H](CC(C)C)NC(=O)[C@H](CCCNC(N)=O)NC(=O)[C@H](Cc1c[nH]cn1)NC(=O)[C@@H](NC(=O)[C@@H](NC(=O)[C@H](Cc1c[nH]c2ccccc12)NC(C)=O)C(C)C)[C@@H](C)O)C(C)C)C(=O)N[C@@H](CCCNC(=N)N)C(=O)N[C@@H](CCCCN)C(=O)N[C@@H](CC(N)=O)C(=O)N[C@@H](Cc1ccccc1)C(=O)N[C@H](C(=O)N1CCC[C@H]1C(=O)N[C@H](C(=O)N[C@@H](CC(=O)O)C(=O)N[C@H](C(=O)NCC(=O)N1CCC[C@H]1C(=O)N[C@@H](Cc1ccccc1)C(=O)N[C@@H](C)C(=O)N[C@@H](Cc1ccccc1)C(N)=O)C(C)C)[C@@H](C)O)C(C)C
- Peptide IC50: 1.85 nM

B33: SEQ ID NO 856 (peptide)
peptide: Ac-WVTHRLAGLLSQSGGVVRKNFVPTDVGPFAF-NH2
- Peptide IC50: 0.47 nM

B34: SEQ ID NO 932 (peptide)
peptide: WVTHXLAGLLSXSGGVVXKNFVXTDVGXFAF
modifications: Ac-WVTH[Cit]LAGLLS[Cit]SGGVV[hArg]KNFV[Oic]TDVG[Oic]FAF-NH2
- Peptide IC50: 1.31 nM

B35: SEQ ID NO 951 (peptide)
peptide: B34 peptide with X28P, F31X
modifications: Ac-WVTH[Cit]LAGLLS[Cit]SGGVV[hArg]KNFV[Oic]TDVGPFA[2-Nal]-NH2
- Peptide IC50: 3.22 nM

B36: SEQ ID NO 955 (peptide)
peptide: B34 peptide with F21X, F31X
modifications: Ac-WVTH[Cit]LAGLLS[Cit]SGGVV[hArg]KN[2-Nal]V[Oic]TDVG[Oic]FA[2-Nal]-NH2
- Peptide IC50: 3.57 nM

B37: SEQ ID NO 948 (peptide)
peptide: B34 peptide with F31X
modifications: Ac-WVTH[Cit]LAGLLS[Cit]SGGVV[hArg]KNFV[Oic]TDVG[Oic]FA[2-Nal]-NH2
- Peptide IC50: 2.57 nM
